{"source": "paper PMC7509490", "origin": "cited, not measured here", "target": "G-actin (Oryctolagus cuniculus) (UniProt P68135)", "data": [{"substance": "Profilin (from UniProt P07274)", "values": [{"measurement": "Kd", "result": 200, "unit": "nM"}]}]}
